# Experimental data as given in article PMC8145704 (Microorganisms, 2021).
# Ends that are not written are not given here.
# Assays:
# Settings in all cases: both partners purified
# [1] = target: T1, WT-HBc capsids (hepatitis B core protein, genotype D; strain ayw; GenBank: V01460.1) (Hepatitis B virus (genotype D; strain …, UniProt P03146 1-183); assay: ITC
# T1 construct: also called HBc-WT; HBc-CLPs; copies: 240
# [2] = target: T1, WT-HBc capsids (hepatitis B core …); assay: peptide or protein array
# F97L-HBc capsids [3] = target: T2, F97L-HBc capsids (Hepatitis B virus (genotype D; strain …, UniProt P03146 1-183, F97L); assay: ITC
# T2 construct: copies: 240
# P5T-HBc capsids [4] = target: T3, P5T-HBc capsids (Hepatitis B virus (genotype D; strain …, UniProt P03146 1-183, P5T); assay: ITC
# T3 construct: copies: 240
# L60V-HBc capsids [5] = target: T4, L60V-HBc capsids (Hepatitis B virus (genotype D; strain …, UniProt P03146 1-183, L60V); assay: ITC
# T4 construct: copies: 240
# F97L-HBc capsids [6] = target: T2, F97L-HBc capsids; assay: cryo-EM structure
# P5T-HBc capsids [7] = target: T3, P5T-HBc capsids; assay: cryo-EM structure
# L60V-HBc capsids [8] = target: T4, L60V-HBc capsids; assay: cryo-EM structure
binder,measurement,setting,value
"H-SLLGRM-NH2 (shortened stretch of P2; source: synthetic peptide (Fmoc solid-phase synthesis, HPLC purified)) [Peptide “SLLGRM” (core binding motif)]",Kd,[1],130 µM
same,dH,[1],-8.3 kcal/mol
same,stoichiometry N,[1],0.25 peptide/HBc
GSLLGRMKGA (not fully specified (C-terminus)) [Peptide P2 “GSLLGRMKGA” on µSPOT peptide microarray],binding result,[2],binds
GSLLGRMKGA (source: synthetic peptide) [Peptide P2 “GSLLGRMKGA”],dH,F97L-HBc capsids [3],-9.9 kcal/mol
same,stoichiometry N,F97L-HBc capsids [3],0.52 peptide/HBc
same,dH,[1],-14.4 kcal/mol
same,stoichiometry N,[1],0.48 peptide/HBc
same,dH,P5T-HBc capsids [4],-7.7 kcal/mol
same,stoichiometry N,P5T-HBc capsids [4],0.45 peptide/HBc
same,dH,L60V-HBc capsids [5],-6.6 kcal/mol
same,stoichiometry N,L60V-HBc capsids [5],0.5 peptide/HBc
MHRSLLGRMKGA (source: synthetic peptide) [Peptide P1 “MHRSLLGRMKGA”],binding result,F97L-HBc capsids [6],binds
same,binding result,P5T-HBc capsids [7],binds
same,binding result,L60V-HBc capsids [8],binds
same,Kd,[1],26 µM
same,dH,[1],-9 kcal/mol
same,stoichiometry N,[1],0.45 peptide/HBc
